Experimental data taken from PMC8729784.

Molecular target: T1, α-catenin monomer (recombinant full-length mouse α-catenin) (mouse), P26231
T1 chain: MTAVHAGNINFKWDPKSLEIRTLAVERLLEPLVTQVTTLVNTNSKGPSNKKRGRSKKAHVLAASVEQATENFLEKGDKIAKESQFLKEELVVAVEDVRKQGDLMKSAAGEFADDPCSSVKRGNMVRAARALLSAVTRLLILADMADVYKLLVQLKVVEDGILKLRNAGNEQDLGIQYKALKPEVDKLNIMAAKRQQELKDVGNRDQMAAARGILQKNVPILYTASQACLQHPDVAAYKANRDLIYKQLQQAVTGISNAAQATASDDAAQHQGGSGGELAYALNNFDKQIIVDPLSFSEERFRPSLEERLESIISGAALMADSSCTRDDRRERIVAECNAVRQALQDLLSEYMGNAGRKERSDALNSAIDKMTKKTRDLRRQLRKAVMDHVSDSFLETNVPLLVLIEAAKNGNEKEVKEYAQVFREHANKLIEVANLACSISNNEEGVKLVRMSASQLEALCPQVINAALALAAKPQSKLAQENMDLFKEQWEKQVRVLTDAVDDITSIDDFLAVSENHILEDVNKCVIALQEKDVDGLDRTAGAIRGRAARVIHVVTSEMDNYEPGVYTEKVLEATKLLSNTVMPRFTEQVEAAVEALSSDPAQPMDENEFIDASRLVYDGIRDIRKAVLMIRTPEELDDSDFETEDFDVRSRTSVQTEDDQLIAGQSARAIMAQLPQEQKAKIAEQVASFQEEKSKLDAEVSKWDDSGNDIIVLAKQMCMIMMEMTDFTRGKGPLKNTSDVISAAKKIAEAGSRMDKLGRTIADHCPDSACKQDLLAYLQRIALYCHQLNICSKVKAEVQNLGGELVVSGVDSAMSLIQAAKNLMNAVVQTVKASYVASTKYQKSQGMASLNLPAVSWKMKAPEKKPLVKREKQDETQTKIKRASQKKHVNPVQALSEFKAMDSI
Test: SEC; Superdex 200 gel filtration at 4°C in 20 mM Tris-HCl pH 8.0, 150 mM NaCl, 2.5 mM DTT, after His-tag affinity chromatography; dimer and monomers
Conditions: remark: other sources report otherwise

B1: α-catenin monomer (recombinant full-length mouse α-catenin), P26231 1-906 (natural protein)
chain: MTAVHAGNINFKWDPKSLEIRTLAVERLLEPLVTQVTTLVNTNSKGPSNKKRGRSKKAHVLAASVEQATENFLEKGDKIAKESQFLKEELVVAVEDVRKQGDLMKSAAGEFADDPCSSVKRGNMVRAARALLSAVTRLLILADMADVYKLLVQLKVVEDGILKLRNAGNEQDLGIQYKALKPEVDKLNIMAAKRQQELKDVGNRDQMAAARGILQKNVPILYTASQACLQHPDVAAYKANRDLIYKQLQQAVTGISNAAQATASDDAAQHQGGSGGELAYALNNFDKQIIVDPLSFSEERFRPSLEERLESIISGAALMADSSCTRDDRRERIVAECNAVRQALQDLLSEYMGNAGRKERSDALNSAIDKMTKKTRDLRRQLRKAVMDHVSDSFLETNVPLLVLIEAAKNGNEKEVKEYAQVFREHANKLIEVANLACSISNNEEGVKLVRMSASQLEALCPQVINAALALAAKPQSKLAQENMDLFKEQWEKQVRVLTDAVDDITSIDDFLAVSENHILEDVNKCVIALQEKDVDGLDRTAGAIRGRAARVIHVVTSEMDNYEPGVYTEKVLEATKLLSNTVMPRFTEQVEAAVEALSSDPAQPMDENEFIDASRLVYDGIRDIRKAVLMIRTPEELDDSDFETEDFDVRSRTSVQTEDDQLIAGQSARAIMAQLPQEQKAKIAEQVASFQEEKSKLDAEVSKWDDSGNDIIVLAKQMCMIMMEMTDFTRGKGPLKNTSDVISAAKKIAEAGSRMDKLGRTIADHCPDSACKQDLLAYLQRIALYCHQLNICSKVKAEVQNLGGELVVSGVDSAMSLIQAAKNLMNAVVQTVKASYVASTKYQKSQGMASLNLPAVSWKMKAPEKKPLVKREKQDETQTKIKRASQKKHVNPVQALSEFKAMDSI
- stoichiometry N: 2
